Measurements taken from article PMC5500549, “DNA binding strength increases the processivity and activity of a Y-Family DNA polymerase” (Scientific Reports, 2017).

B1: Dbh (WTDbh) (Sulfolobus acidocaldarius DSM 639) (protein)
chain: MIVIFVDFDYFFAQVEEVLNPQYKGKPLVVCVYSGRTKTSGAVATANYEARKLGVKAGMPIIKAMQIAPSAIYVPMRKPIYEAFSNRIMNLLNKHADKIEVASIDEAYLDVTNKVEGNFENGIELARKIKQEILEKEKITVTVGVAPNKILAKIIADKSKPNGLGVIRPTEVQDFLNELDIDEIPGIGSVLARRLNELGIQKLRDILSKNYNELEKITGKAKALYLLKLAQNKYSEPVENKSKIPHGRYLTLPYNTRDVKVILPYLKKAINEAYNKVNGIPMRITVIAIMEDLDILSKGKKFKHGISIDNAYKVAEDLLRELLVRDKRRNVRRIGVKLDNIIINKTNLSDFFDI
notes: synthetic gene, 6xHis tag (C-terminal by gene design, N-terminal by purification), expressed in E. coli BL21(DE3), Ni-NTA and Mono-S

Legend:
[1] = test system: SdbhA221S (Sulfolobus acidocaldarius (Dbh); Sso7d source organism not stated); assay: fluorescence titration (2AP); details: 10 mM Mg2+; 2-aminopurine at the primer terminus; 50 mM Tris acetate pH 7.5, 50 mM sodium acetate, 10 mM magnesium acetate, 5 mM DTT, 0.05% Tween 20, 25 °C; 100 nM 2AP-P/T, 0-1000 nM pol
[2] = test system: SdbhK337R (Sulfolobus acidocaldarius (Dbh); Sso7d source organism not stated); assay: fluorescence titration (2AP); details: 2-aminopurine at the primer terminus; 50 mM Tris acetate pH 7.5, 50 mM sodium acetate, 10 mM magnesium acetate, 5 mM DTT, 0.05% Tween 20, 25 °C; 100 nM 2AP-P/T, 0-1000 nM pol
[3] = test system: SdbhI62V (Sulfolobus acidocaldarius (Dbh); Sso7d source organism not stated); assay: fluorescence titration (2AP); details: 2-aminopurine at the primer terminus; 50 mM Tris acetate pH 7.5, 50 mM sodium acetate, 10 mM magnesium acetate, 5 mM DTT, 0.05% Tween 20, 25 °C; 100 nM 2AP-P/T, 0-1000 nM pol
[4] = test system: Dbh (WT) (Sulfolobus acidocaldarius); assay: fluorescence titration (2AP); details: 2-aminopurine at the primer terminus; 50 mM Tris acetate pH 7.5, 50 mM sodium acetate, 10 mM magnesium acetate, 5 mM DTT, 0.05% Tween 20, 25 °C; 100 nM 2AP-P/T, 0-1000 nM pol
[5] = test system: Sdbh (Sso7d-Dbh fusion) (Sulfolobus acidocaldarius (Dbh); Sso7d source organism not stated); assay: fluorescence titration (2AP); details: 2-aminopurine at the primer terminus; 50 mM Tris acetate pH 7.5, 50 mM sodium acetate, 10 mM magnesium acetate, 5 mM DTT, 0.05% Tween 20, 25 °C; 100 nM 2AP-P/T, 0-1000 nM pol
[6] = test system: SdbhT37F (Sulfolobus acidocaldarius (Dbh); Sso7d source organism not stated); assay: fluorescence titration (2AP); details: 2-aminopurine at the primer terminus; 50 mM Tris acetate pH 7.5, 50 mM sodium acetate, 10 mM magnesium acetate, 5 mM DTT, 0.05% Tween 20, 25 °C; 100 nM 2AP-P/T, 0-1000 nM pol
[7] = test system: SdbhM76I (Sulfolobus acidocaldarius (Dbh); Sso7d source organism not stated); assay: fluorescence titration (2AP); details: 2-aminopurine at the primer terminus; 50 mM Tris acetate pH 7.5, 50 mM sodium acetate, 10 mM magnesium acetate, 5 mM DTT, 0.05% Tween 20, 25 °C; 100 nM 2AP-P/T, 0-1000 nM pol
[8] = test system: SdbhKSKIP241-245RVRKS (Sulfolobus acidocaldarius (Dbh); Sso7d source organism not stated); assay: fluorescence titration (2AP); details: 2-aminopurine at the primer terminus; 50 mM Tris acetate pH 7.5, 50 mM sodium acetate, 10 mM magnesium acetate, 5 mM DTT, 0.05% Tween 20, 25 °C; 100 nM 2AP-P/T, 0-1000 nM pol
[9] = test system: SdbhY249I (Sulfolobus acidocaldarius (Dbh); Sso7d source organism not stated); assay: fluorescence titration (2AP); details: 2-aminopurine at the primer terminus; 50 mM Tris acetate pH 7.5, 50 mM sodium acetate, 10 mM magnesium acetate, 5 mM DTT, 0.05% Tween 20, 25 °C; 100 nM 2AP-P/T, 0-1000 nM pol
[10] = test system: SdbhL250V (Sulfolobus acidocaldarius (Dbh); Sso7d source organism not stated); assay: fluorescence titration (2AP); details: 2-aminopurine at the primer terminus; 50 mM Tris acetate pH 7.5, 50 mM sodium acetate, 10 mM magnesium acetate, 5 mM DTT, 0.05% Tween 20, 25 °C; 100 nM 2AP-P/T, 0-1000 nM pol
[11] = substrate: Nc1ncnc2c1ncn2[C@H]1C[C@H](O)[C@@H](COP(=O)(O)OP(=O)(O)OP(=O)(O)O)O1; assay: steady-state single-nucleotide insertion, FAM-primer gel assay; assay type: biochemical, Sulfolobus acidocaldarius; details: opposite template G (incorrect, misinsertion), 1.0 μM primer-template, 20 nM pol, 5 mM MgCl2, 100 mM KCl, pH 7.5, 37 °C, apparent Km
Source text: (§1) steady-state single-nucleotide insertion, FAM-primer gel assay on Dbh (WTDbh)

[12] = substrate: Nc1ccn([C@H]2C[C@H](O)[C@@H](COP(=O)(O)OP(=O)(O)OP(=O)(O)O)O2)c(=O)n1; assay: as above; assay type: biochemical, Sulfolobus acidocaldarius; details: opposite template G (correct), 1.0 μM primer-template, 20 nM pol, 5 mM MgCl2, 100 mM KCl, pH 7.5, 37 °C, apparent Km
Source text: as §1

Molecule | Kd [1] [nM] | Kd [2] [nM] | Kd [3] [nM] | Kd [4] [nM] | Kd [5] [nM] | Kd [6] [nM] | Kd [7] [nM] | Kd [8] [nM] | Kd [9] [nM] | Kd [10] [nM] | Km [11] [µM] | Vmax [11] [µM/min] | Km [12] [µM] | Vmax [12] [µM/min]
2AP-P/T primer-template | 47.5 | 55.5 | 49.8 | 54.8 | 51.2 | 49.7 | 42.8 | 34.8 | 56.2 | 50.4 |  |  |  | 
B1 |  |  |  |  |  |  |  |  |  |  | 215.2 ± 18.7 | 1.9e-05 | 88.2 ± 12.0 | 0.001
